Results on 47 sequences are retold here after the NTF2 design screens of Basanta et al. (2020).

The data set is described as follows: protease stability score; higher = more stable; yeast display proteolysis, trypsin and chymotrypsin.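 Further: relative to predicted unfolded state with 0 unfolded-like and 1 meaning tenfold more protease.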
In the case of “SEEEKEIKEILERLIRSLLTGDEQELAKMADPNVRFNFQVGNKKYTLHGREHLRRHITFVFEYLGFDHITIQDSHYQGDKMTVHVELRVNGRRHEIREHWLVVDGRIKEVHVEIH”, the protease stability score was found to be 2.32. To “DQEEREDRKILKLLVELWRTGNEEVLEHLLDPNVKMRLEFEGREDSAHGRESMIEMLRRVWKVLGIKHERLESVHVFDGVVIITMRLSVDGREQDIQLLFFVYDGRIKSIVIRVRDR” belongs 1.45; to “TEDEELTSRANKEFQEFETTGDEEVLKRLFDPNTRLDVNGQDRHGRDEVVHLLVRMIHKLGIDHVSLKEVRIVNGKLDLNLTINVGEKRINTRLIHKKVNGRWVIETVEMG”, 1.23; to “DEEDRYMKELLEELLKDFETGNWDRLISLLDPHMRIQAENVTLHGRETTSRWLQEITSRVKGLRLHIESEEIQGDKAIIDGINNVNGREIRTILFSVKVDGRWLIKSIIIL”, 1.28.

“DEKERLAHEFHERFLEALMTGDEHHIEEMFDPNARTRQGDKTFHGRERSLHLISEWWRQIDVVRDIHIHEIKFQGDFLSFHLMIDGEINGRRDELVVHVESRKIDGKWFLHSVTYT” displayed a protease stability score of 0.497. To “SEEEEISKTAIELMIRALHTGDWQHWLHLADPHYRVNINGREHHGREDSLRIINELLELLGVERVELRLEDFRVIDGRIHIITKMHYNGVVTDNRLIMKKVDGKWQLDTVIVT” belongs 1.05; to “SEHEEIMHKALLFLIYVLLTGDEEILHELLDPNARLDVNGREKHGREDWVQLKRELIHKIKNVRIELHDMKVIGDFLISDQRHDYDGREYKMDVFAFKVDGQWKVREEKLD”, 1.44. The value for “NREDRELEDFIWEILEAWRTGDEDEHHRLLDPHTRHHFNGRVSHGREMVEYIFKQFDHIHRFEYRDFSVQGNKAHVFAQVDVRIGDKIITFDVTIEVEKVNGRWVLRELSIH” was 1.31. The value for “SEEEEFWKHIAKVMLDLVTTGNEDLFMKMADPNTKSEFNGRTVVGRERIAEILKKFKNITIIIHHIDIQGEKVRIHGRVLIGDKEIEDDWELVVVDGKIQRLHFEHV” was 1.29.

With “DEFKELTTEFIKQFLDNIRTGNEELLRELADPHVRFLVNGRELHGRESFVETFRHWRMKDWEIRDVEVYGEKLVMDGHVRVNIDGREDSVRVRLYVDKIDGQWHHRRFEFN”, the protease stability score was 1.76. To “DHREEHDHEISELMREALLTGDEQLISHLADPNVRFEVFVGDKVIRWVGRESMMEAFERWVREIRIEDLKVKHVDIFNGRVDVVTTLHVEFDGRKHDLETRLIFEVVDGKVKHLQVHHH” belongs 1.36; to “SEDEQLAREAIERLLQDFSTGNFERLMEMVDPNVRWEVGDFVSHGRENWSEHFRTYLEKMGFKHVNVRLKHIEVIGNKVIVHSEIIINVDGQELRMQSSSHVVKINGRWVLRSESHL”, 2.06. To “SEEDRILELIARMMFNLWLTGNEEELERLVDPNARSVINGQEVHGMHETKELLRRLKEHIRIDDMRISRIEVYNGRAIVDLSVDGEFNGRRDITRVEIVIYVVDGKVRSIEFHRK” belongs 1.78. To “DDSHKKLKHAFELLLHALRTGDEDLLKELIDPEVRILFNGKIFHGREWWEHLLRHIRFKDIHIKNIDIQGDKLRVDSRLHIIIDGRHVDFEAEFYIVKVDGRWFTEEIVIK” belongs 2.21. Sequence “DEQEKEAKRVVEEILEILLTGDFESFLRNADPNVRIIIGDKDYWGREHTKRLLTDWRREMRVKHIDVRDIEVQGNKVKLHLESDLEINGRRTRTEMEIIVVTFNGRFESLEIRTV” came in with a protease stability score of 1.75.

As for “DEEHREMRDVLDELLEAFHTGDEHSLNRYADPHARHHVNGKEYHGRELMVKIWMDLGIDHVHLEEIHLQGEKLHMDTRVTVNGRTIKVTIIILKINGRWKLTHVEIK”, the protease stability score worked out at 0.958.

“DELEHMVRLLLKIWIHALITGDEELMMDQADPNVRLIIGDKIHHGMETFEEWVHQFKNLTVKHIVLRHTHYQGNKARIVGHLDIEINGRHHRLQTEIVIHKFNGKWYISDLRFD” returned a protease stability score of 0.646. To “SHEEEMAERALRKFIHSVQTGDEDSWEELLDPNVRINIGDKRHVGRHEAVKLFRQRIRHLRIDHIELRERDYYGDKLILRIIVEGRFNGQETTLELHIVFWKFDGRWIIESMEHK” belongs 2.77; to “DEDKEILKRAFEIYIQTVLTGDEDLFHEMADPHTRLETENETFIGREEVRRWMSEWRVDHIILKDFTAVNGRLVLRGEMDGTINGKRTHVTVTIIIHKVDGRWLLKSMSVE”, 1.36.

The sequence “DEDEQKHREAAHLMLEMILTGDFEYFRHLLDPDVRLEINGKEIHGREEVYRHLLEWWQRIKNVRIKFKTMRIHIFDGVLFIHLDLEIEIGDKSIKTEILIVSIKIDGRWLLNSLHIHDR” came in with a protease stability score of 1.04.

Regarding “DEEKELADYISHLLVENLKTGDWHSLRRLIDPNARLEYGDKEHHGWKEIYESKRHLDEELGVKHVNINIHRINYQGEKVEIDGEVRIHFNGRTENRKVNIELRIFNGRIKEVIVDIR”, the protease stability score amounted to 1.17. To “DEDKEAKEESWRIYLHSLLTGDEKEIERLVDPNARLDINGQEHHGRHMVLTHVLRLMVRADHLDDIEIHHMEVIDGQLHSDVILKITINGRDVHIREHYLLRKVNGRWYFKSIEVR” belongs 1.7; to “DEDEDLLRRFTELWNHIYLTGDERMLHHLVDPHARLDVNGKEMHGRELLIKWMVKEIRDLGADHYRIDIKHYHFVDGRAHVQSTLEVDIGDKRITFYIRLILLKVNGRWVVHTIYYH”, 1.55; to “DEEREHSEEALLLLLHLIMTGDEEELIKNVDPNARITQGDKEFHGREVVIKHLFELMHRFGVKHFTVDHVEIFNGRLFIRFTLHFNGRKIDEHLILVKINGRWLLKSMEIK”, 2.21. To “REDEEMIEHAVRREIHSYYTGDWEKHYKLLDPNALIHIDINGRQENIHGREEIMRFWYERFKDFGFDHMEIKRITLVDGKLHIFSIIDVNGVRIELEIIIVKVDGRWRLHTMRYHYH” belongs 0.652; to “DHHEELRHWFLEIYRRIMITGDEKELEKLIDPHAKLRINGREHVGMEYIQRIFDLLRHEIRFKDMDIREYHLVDGQIDDHSVLTLHINGKEVTRETRIVNRKVNGRWKIEVESIH”, 0.622; to “SEDEKMAERVLRLLYEDILTGDEHALKRLLDPDARLSQGDKQHHGREVLLEWMRTVWERVDHMEFELKDFRFYGNYIIIHGTLTERINGRKLEFEVILYVYKINGKWFLHSIEIR”, 1.85. The value for “DEEERHVQTLYEIFLKLEITGNEHAIKRLLDPHTRLHINGREHHGREEVVEAVRFWLTEWRIHHFKIHNREVQGDKMYMDTRLEVEFNGVNEEVHMIIIMQKIDGRWILRRIEIE” was 2.25; that for “EEEKKNRAHQFLKAVERGDPEELRKQFDPNAHARVGDKRYHGMEEWAKDVMRRVRELRMSIKRLSVDVQGNDVKVNMNLVINRNGKPKEFREVWYFKIHNGHFVELHVQEEP” was 1.24. In the case of “HEDKKSLEDFLELLLHAIATGDEEILRHLLDPNVRLDIDGRHVVGREELLRWFREIRVKRSDIRIDHFHVQGDKIHADVTDLYDGEFNGKRHLMVLKTELILVKFNGRWHIRTMHFH”, the protease stability score amounted to 2.23. The value for “HEEEEKVERYTRMYWNHLLTGDEDILQELMDPHARSTEIYGDFRIENHGRKAQHWLLRRIDHITSLRIHDVQIVDGVALVDSESDYRIGDKEIRVRTELIVHVVNGKIKSVSISVR” was 0.896. To “DEDRRIAEHLIKLYLQSTRTGDENSIRHLMDPNTRVIVGDKDRIGREAAEELLRRVDHLHDYKIEDIRFVGDFIDVEMRVDGEFDGVREHYRVILILFKVDGRWRIHLIEIR” belongs 1.55; to “DEDDKLLEKWVKDLREALRTGDEQTLLKLIDPNTRLEIGDKDFHGREVIVKLWKDLGMEIRDVKVHDIKRQGDFLELDIRIDVIINGVRENREHKIYALKVNGKWFVKTQIDE”, 2.13; to “SEEEEKAVKVTEEILHNLLTGDWERLAEMLDPDTWLHQGDKHRHGREQVLKHFSDFYNEIRIEDFKIHDITVQGEKAISHGHVKMRYGDKVRETSVRFVLIVIDGRIDQIEVHVH”, 1.8. With “DEELHHQERLLREFLHAEFTGDEDKLRHLADPRTRSDLEFENVEIVLHGMDEHVKWWEELGFKIDEMRISRIDVVGNFIILDTRVRGHINGQETHFEHHIIINTINGKIHSIRVHTK”, the protease stability score worked out at 0.735. Turning to “DDREKDSKREVKEFLEMFITGDEERWSKMADPNVRLHFDGVESHGREEALRIMRLLLEQFKNLKVTDVQLTSIEIQGEKALIRTRIHTEVNGKEDSLDVILFATKFDGRWIINSIEIR”, the protease stability score was 1.1.

With “SEDEESFRHIIELMKHSLKTGDWRHLEKLLDPNARVHINGKESHGREEAVKAFRHTWEMLGIDHIEFKDEKIRMQGNKVHVHIDGVINVNGVELKSHFEHHIVKFNGRWHTEKLVIQLD”, the protease stability score was found to be 1.93. To “SEEEEDVRIALLMLEHTMRTGDEEDTREMADPNVRVEVGDKELHGRELYVEWFHRLGVKHFDIREVRFIGDKVNIRGISHVNGRNYHVVLHARKIDGRWHLTLWEMR” belongs 1.41. The value for “DEEERFSEEALRRIWHALETGDERIQEDLADPNVRIDVGEKSYHGREKWSEMIRHMRLHDIKIHHVIVINGRMRFHGRMDGNIDGKRIDTEVEIHFEKVDGKWLVRKIRIH” was 2.25. The value for “DEEERHMKKLLDELLRAWVTGDESRLSELLDPNARSIVNGKSSHGREESEKIVRWAGVKHFNEDDTKLINGVVVVKGTMEVDGVTWEVDIRNFIFDGRVKEVRIIIR” was 1.19. Take “DHWEHVERMYSHEVLHMLETGDEHKFNKLMDPNARIDVGEWDLIGMHRVSHALKEVRDELGIKHSEVKHVDIFNGRVEIHTEVHVDGRSHKVRIEVIYVNGRTKWMRYEQH”: the protease stability score stood at 0.717. For “SEEEEDAHRNIELLVRYLITGDEETVSRLVDPHVKTDINGQEDHGWQIMSILMEKFKNVTLRLHDIETQGNFAVINMKMRFNGQTFDLHFFARKVNGRWFVEHIKIRQN”, the protease stability score came to 1.62. The value for “DEEEKEAEDFFHDWVHSMLTGDEDTLRRMIDPHVKIQVGDKEFHGMKWATRMYREIRIEDMRLRRVHVINGKADIHSITHTNINGRQEDIHITIIIEKVDGRWILRSVIIR” was 2.13; that for “DEREELLRRWTEEFLDVFHTGDPKETMDMVDPHARIIVIINGRTIEDHGWEHVKILLEQIRVHDFHLTDVRVVNGKVRIDGRYDGYVNGQRVDHHVIIINVVVDGRTHTLLIEIR” was 0.804.

For the sequence “SEDERDMEKASEDMLRNWMTGDFKSLHTLLDPHYRIDIDGQWHHGRDLWVEALRELLHQLGVERVEARERDFKIQGNKLESHIELRYNGRTIETDDLFIKIDGRWFIHSIHLRIR”, the protease stability score turned out to be 0.94. As to “SKDDEIIHTLIRFIVHILQTGNEEESHRMADPNAKSNINGVEVHGREEFVDLWVEWMERLGHDRVHSRLRHVNIQGDKAIMHIELDVNGKEFNLIVFIRKVNGRWYLEEMTID”, the protease stability score was found to be 2.11. “TDEEELLHRILDEIEKALLTGDEDIIHRLFDPHVRFHVNGRHIVGRHEWSRWVNDHRKRFKNIQIRMRVEEKDVIDGRMHSRTKLHIIFNGVRYEITQEINIDVIDGRLKNVIVHDE” yielded a protease stability score of 0.725.
